{
  "source": "paper PMC10296842",
  "about": "“How Do Cancer-Related Mutations Affect the Oligomerisation State of the p53 Tetramerisation Domain?” (Current Issues in Molecular Biology, 2023)",
  "target": "the molecule itself",
  "test": "native MS; peptide alone in 200 mM ammonium acetate, pH 7; high monomer concentration (80 uM WT and T329I, 100 uM R337H), cone voltage 40 V (raised to 80-120 V to dissociate the oligomers); positive ESI, TOF and ion mobility-TOF; WT and R337H not isotope-labelled",
  "data": [
    {"protein": "Ac-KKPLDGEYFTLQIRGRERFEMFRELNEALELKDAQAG-NH2 (peptide, UniProt P04637 320-356, looked up, also: 13C-methyl Met340 in the isotope-labelled form, p53 tetramerisation domain, residues 320-356 (37 amino acids); Made twice: with normal methionine (used in native MS and CD) and with 13C-methyl methionine (used in NMR); also called WT TD; p53TD; source: synthetic peptide (manual Fmoc/tBu SPPS), purified by semi-preparative HPLC)", "note": "[37TD-WT (wild-type p53 tetramerisation domain peptide, residues 320-356)]", "values": [
      {"measurement": "stoichiometry N", "value": 4}
    ]}
  ]
}
